Measurements from US20100331255A1 (WAKE FOREST UNIVERSITY HEALTH SCIENCES, published 2010).

Molecular target: T1, Rat PDI (protein disulfide isomerase) in extracted rat liver microsomal membranes (rat, UniProt P04785 20-509)
T1 construct: Endogenous protein solubilised from extracted rat liver microsomal membranes; also called 55 kDa PDI protein
T1 sequence (looked up): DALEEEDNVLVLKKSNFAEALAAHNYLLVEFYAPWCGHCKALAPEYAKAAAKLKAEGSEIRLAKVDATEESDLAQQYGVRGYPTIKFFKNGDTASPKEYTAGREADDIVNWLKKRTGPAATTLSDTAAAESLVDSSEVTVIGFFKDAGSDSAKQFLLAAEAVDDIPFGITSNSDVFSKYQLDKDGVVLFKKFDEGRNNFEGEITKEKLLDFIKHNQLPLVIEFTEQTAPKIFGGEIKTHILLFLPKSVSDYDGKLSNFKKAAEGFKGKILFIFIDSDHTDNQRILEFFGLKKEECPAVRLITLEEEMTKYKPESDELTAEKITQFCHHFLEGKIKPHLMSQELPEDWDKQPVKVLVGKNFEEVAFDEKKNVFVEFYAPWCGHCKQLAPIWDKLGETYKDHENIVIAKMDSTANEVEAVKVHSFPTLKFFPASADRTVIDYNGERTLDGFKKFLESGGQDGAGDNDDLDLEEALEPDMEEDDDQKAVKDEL
Assay: immunoprecipitation with rat VKORC1 antibodies from solubilised rat liver microsomal membranes, Western blot with PDI monoclonal antibody
Source text: Lane St. has standard proteins. […] Lanes D and E show Western blots of extracted human and rat liver microsomes respectively with peptide antibodies raised against an epitope on human VKORC1 (see Experimental Procedures). […] The sequence of precipitating and first antibody is shown. Rat PDI and the heavy (HIgG) and light (LIgG) chains of mouse IgG are visible. Panel II, lanes G.Ox. and G.Red show immunoprecipitates obtained with rat VKORC1 antibodies and their Western blots developed with the mouse PDI monoclonal antibody as the first antibody and horse radish conjugated goat anti-mouse IgG as the second antibody. The sequence of precipitating and first antibody is shown. Preparation of the samples before SDS-PAGE in 8-12% CRITERION gels is described in detail in Experimental Procedures. The samples in G.Ox and G.Red were not reduced and reduced with ME respectively prior to electrophoresis.
Extracted microsomal membranes were resuspended in buffer D (250 mM sodium phosphate, 0.5 M KCl, 20% glycerol, 0.75% CHAPS, pH 7.85 containing 10 μg/ml of the Sigma Protease Inhibitor Cocktail for use with mammalian cell and tissue extracts) using a Dounce homogenizer. For blocking of free thiol groups, 20 mg NEM was added per ml of buffer D before homogenizing. The protein concentration was 6.8 mg/ml. […]

B1: Rat VKORC1 in extracted rat liver microsomal membranes (enzyme, UniProt Q6TEK4 1-161, looked up)
chain: MGTTWRSPGRLRLALCLAGLALSLYALHVKAARARNEDYRALCDVGTAISCSRVFSSRWGRGFGLVEHVLGADSILNQSNSIFGCMFYTIQLLLGCLRGRWASILLILSSLVSVAGSLYLAWILFFVLYDFCIVCITTYAINAGLMLLSFQKVPEHKVKKP
notes: Endogenous protein
B1: binds.
